Assay results reported in patent US20120027773A1 (AVEO PHARMACEUTICALS, published 2012).
Like-named read-outs stand apart in the source and are kept apart here.

Key:
[1] = biological target: T1, human wild-type RON (cell surface) (human, UniProt Q04912 25-1400); experiment: FACS titration on PC3 cells, 4 C
T1 construct: whole, on cells; also called Human RON; wt RON
Protocol: (§1) Binding to cell surface human wild-type RON and the delta 160 RON variant by antibodies 07F01, Sh07F01-62, 29B06, and Sh29B06-78 was measured at 4° C., using Fluorescence Activated Cell Sorting (FACS). PC3 cells expressing the human wild-type RON, and HT29 cells expressing the delta 160 variant, were harvested using cell dissociation buffer (Invitrogen), washed twice with FACS buffer (PBS with 0.5% BSA), and treated 10 minutes with Cyto Q Antibody diluent and FC receptor block (Innovex Biosciences, Richmond, Calif.). Purified antibodies were diluted in FACS buffer over a concentration range from 0.01 nM to 25 nM. Cells were incubated with 100 μl of antibody for one hour, washed with FACS buffer three times, and incubated for 45 minutes with goat anti-mouse PE-conjugated antibody (Jackson ImmunoResearch Laboratories, West Grove, Pa.) or donkey anti-human PE-conjugated antibody (Jackson ImmunoResearch Laboratories, West Grove, Pa.). Cells were washed three times with FACS buffer, resuspended in 300 μl of FACS buffer, and analyzed using a Beckman Coulter Cytomics FC 500 FACS instrument. All four antibodies were compared in the same experiment.

[2] = biological target: T1, human wild-type RON (cell surface); experiment: FACS titration on PC3 cells, 4 C; remark: listed apart in the source
Protocol: (§2) Binding to cell surface human wild-type RON and the delta 160 RON variant by antibodies 29B06 and 07F01 was measured at 4° C., using Fluorescence Activated Cell Sorting (FACS). PC3 cells expressing the human wild-type RON, and HT29 cells expressing the delta 160 variant, were harvested using cell dissociation buffer (Invitrogen), washed twice with FACS buffer (PBS with 0.5% BSA), and treated for 10 minutes with Cyto Q Antibody diluent and FC receptor block (Innovex Biosciences, Richmond, Calif.). Purified antibodies were diluted in FACS buffer over a concentration range from 0.02 nM to 40 nM. Cells were incubated with 100 μl of antibody for one hour, washed with FACS buffer three times, and incubated for 45 minutes with goat anti-mouse PE-conjugated antibody (Jackson ImmunoResearch Laboratories, West Grove, Pa.). Cells were washed three times with FACS buffer, resuspended in 300 μl of FACS buffer, and analyzed using a Beckman Coulter Cytomics FC 500 FACS instrument.

[3] = biological target: T2, recombinant human RON SEMA and PSI domains (human, UniProt Q04912 25-571); experiment: SPR, Ab captured on anti-mouse IgG, 25 C, AVG
T2 construct: domain: SEMA+PSI; Commercial protein (R&D Systems); also called rhRON SEMA+PSI; hRON SEMA+PSI
Protocol: The binding affinities and kinetics of binding of antibodies 07F01, 29B06, 17F06, 18H09, and 12B11 to recombinant human RON-ECD/mFc fusion protein (rhRON ECD/mFc) and recombinant human RON SEMA and PSI domains (rhRON SEMA+PSI) (R&D Systems, Inc., Minneapolis, Minn.) were measured by surface plasmon resonance, using a Biacore T100 instrument (GE Healthcare, Piscataway, N.J.).
Rabbit anti-mouse IgGs (GE Healthcare) were immobilized on carboxymethylated dextran CM4 sensor chips (GE Healthcare) by amine coupling, according to a standard protocol. Analyses were performed at 25° C. and 37° C., using PBS containing 0.05% surfactant P20 as running buffer. The antibodies were captured in individual flow cells at a flow rate of 10 μl/min. Injection time was varied for each antibody to yield an Rmax between 30 and 60 RU. 250 μg/mL mouse Fc were injected at 30 μl/min for 120 seconds to block non-specific binding of antibodies to Fc portion of the protein when needed. Buffer, rhRon ECD/mFc or rhRON SEMA+PSI diluted in running buffer was injected sequentially over a reference surface (no antibody captured) and the active surface (antibody to be tested) for 300 seconds at 60 μl/minute. The dissociation phase was monitored for up to 3600 seconds. The surface was then regenerated with two 60-second injections of 10 mM Glycine-HCl, pH 1.7, at a flow rate of 60 μl/min. The rhRON ECD/mFc or rhRON SEMA+PSI concentration range tested was 0.625 nM to 20 nM.

[4] = biological target: T3, delta 160 RON variant (cell surface) (human, UniProt Q04912 25-1400); experiment: FACS titration on HT29 cells, 4 C
T3 construct: whole, on cells; Splice variant; also called delta 160 variant
Protocol: as §2

[5] = biological target: T3, delta 160 RON variant (cell surface); experiment: FACS titration on HT29 cells, 4 C; remark: listed apart in the source
Protocol: as §1

[6] = biological target: T1, human wild-type RON (cell surface); experiment: cell-based or functional assay
[7] = biological target: T2, recombinant human RON SEMA and PSI …; experiment: ECL competition assay: antibody titrated on plate-coated hRON SEMA+PSI; blocked ligand MSP, detected with biotinylated anti-MSP antibody
Protocol: The biochemical neutralization assay measures inhibition of MSP binding to hRON by antibodies in hybridoma supernatants, using electrochemiluminescence (ECL). MA2400 96-well high binding plates (Meso Scale Discovery) were coated with 25 μl of 0.42 μg/mL hRON SEMA+PSI (an N-terminal portion of the ECD of hRON; R&D Systems) in PBS for one hour at room temperature with agitation. The plates were washed four times with PBS+0.1% Tween-20 (PBST), and blocked with 150 μl of charcoal-stripped fetal bovine serum (FBS) (Gibco). The hybridoma supernatant were added and incubated for 45 minutes at room temperature. After incubation, 5 μl of MSP (3 μg/mL) in charcoal stripped FBS was added to each well, and incubated for 45 minutes. The plate was washed four times with PBST, and 25 μl of 1 μg/mL biotinylated anti-MSP antibody (R&D Systems) was added to the plates for one hour at room temperature with agitation. The plates were washed four times with PBST, and incubated with 25 μl of 1 μg/mL ST-streptavidin (Meso Scale Discovery) for one hour at room temperature with agitation. The plates were washed four times with PBST, and 150 μl read buffer (Meso Scale Discovery) was added to each well before the plates were analyzed on a Sector Imager 2400 (Meso Scale Discovery) instrument. Antibodies 07F01, 18H09 and 29B06 each blocked MSP binding to hRON SEMA+PSI in this neutralization assay.
Antibodies 07F01, 12B11, 17F06, 18H09, and 29B06 were tested for inhibition of MSP binding to hRON SEMA+PSI, as measured by electrochemiluminescence (ECL) assay as described in Example 3. The antibodies (concentration range: 0.006-10 μg/mL) were incubated for 45 minutes at room temperature.

B1: 07F01 (antibody, mouse IgG1, kappa, V domains shown)
VH: EVKLLESGGGLVQPGGSLKLSCAASGFDFSRHWMSWVRLAPGKGLEWIAEINPDSRTINYTPSLKEKFIISRDNAKNSLFLQMNRVRSEDTALYYCARRVRIHYYGAMDCWGQGTSVTVSS
VL: DIVLTQSQKIVSTSVGARVSVTCKASQNVGSSLVWYQQKPGQSPKTLIYSASFRYSGVPDRFTGSGSGTDFTLTISNVQSEDLADYFCQQYNNYPLTFGAGTKLELKR
notes: Murine hybridoma monoclonal, IgG1/kappa; also called mu07F01; antibody 07F01
With B1 the Kd [1] was 0.053 nM, the Kd [2] was 0.032 nM and the Kd [3] was 0.088 nM. It also gave a koff [3] of 0.00036 s⁻¹, a kon [3] of 5.2e+06 M⁻¹ s⁻¹ and a Kd [4] of 0.024 nM. The Kd [5] was 0.1 nM, the “Percent Inhibition of MSP-induced HPAF-II cell migration, antibody 2 ug/ml” value [6] was 95.6% and the “IC50 (read off the curve)” value [7] was ~0.3 nM.

B2: 29B06 (antibody, mouse IgG1, kappa)
heavy: EVQLQESGPSLVKPSQTLSLTCSVTGDSITSGYWNWIRKFPGNKLEYMGYISYSGKTYYNPSLKSRISITRDTSKNHYYLQLISVTAEDTATYYCARSKYDYAMDYWGQGTSVTVSSAKTTPPSVYPLAPGSAAQTNSMVTLGCLVKGYFPEPVTVTWNSGSLSSGVHTFPAVLQSDLYTLSSSVTVPSSTWPSETVTCNVAHPASSTKVDKKIVPRDCGCKPCICTVPEVSSVFIFPPKPKDVLTITLTPKVTCVVVDISKDDPEVQFSWFVDDVEVHTAQTQPREEQFNSTFRSVSELPIMHQDWLNGKEFKCRVNSAAFPAPIEKTISKTKGRPKAPQVYTIPPPKEQMAKDKVSLTCMITDFFPEDITVEWQWNGQPAENYKNTQPIMDTDGSYFVYSKLNVQKSNWEAGNTFTCSVLHEGLHNHHTEKSLSHSPGK
light: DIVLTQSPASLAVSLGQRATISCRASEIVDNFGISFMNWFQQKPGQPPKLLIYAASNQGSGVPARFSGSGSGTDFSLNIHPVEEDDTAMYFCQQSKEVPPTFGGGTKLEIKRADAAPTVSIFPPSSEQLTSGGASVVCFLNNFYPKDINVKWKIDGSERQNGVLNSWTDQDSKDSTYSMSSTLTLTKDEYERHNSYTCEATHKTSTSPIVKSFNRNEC
notes: Murine hybridoma monoclonal, IgG1/kappa; also called mu29B06; antibody 29B06
B2 showed a Kd [1] of 0.136 nM, a Kd [2] of 0.133 nM and a Kd [3] of 0.18 nM. The koff [3] was 7e-05 s⁻¹, the kon [3] was 420000 M⁻¹ s⁻¹ and the Kd [4] was 0.146 nM. For the same binder, the Kd [5] was 0.167 nM, the “Percent Inhibition of MSP-induced HPAF-II cell migration, antibody 2 ug/ml” value [6] was 96.8% and the “IC50 (read off the curve)” value [7] was ~1 nM.
